{"source": "patent US20130115220A1", "about": "“METHOD FOR PREVENTION OR TREATMENT OF METABOLIC SYNDROME” (DAINIPPON SUMITOMO PHARMA CO., LTD., priority 2010, published 2013)", "key": {"AIM knockout mice": {"system": "AIM knockout mice", "assay": "Macrophage infiltration into adipose tissue after systemic rAIM administration", "format": "in vivo, mouse", "conditions": "intravenous injection 50 μg/body/injection, 3 weeks", "description": "Then, rAIM was systemically administered to the AIM knockout mice by intravenous injection (50 μg/body/injection). After the administration was continued for 3 weeks, a section produced from the visceral fat tissue was stained with an anti-macrophage monoclonal antibody (F4/80)."}, "3T3-L1 cells": {"system": "3T3-L1 cells", "assay": "Expression of adipocyte markers by quantitative real-time PCR", "format": "cell-based, mouse", "conditions": "day 12", "description": "The cells cultured in schedules A-D shown in FIG. 13 were recovered on day 10 from the start of the differentiation induction stimulation (day 12), and expression of adipocyte markers (C/EBPα, PPARγ1, PPARγ2, CD36, Glut4) at mRNA level was measured using 7500 Fast Real-Time PCR system (Invitrogen; CA, USA) by ΔΔCT method."}, "[1]": {"system": "differentiated 3T3-L1 cells", "assay": "Lipid droplet fusion in differentiated 3T3-L1 cells, oil-red-O", "format": "cell-based, mouse", "conditions": "rAIM 5 μg/ml", "description": "The differentiated 3T3-L1 cells were loaded with rAIM (5 μg/ml) according to the schedule shown in FIG. 13, E. The oil-red-0 staining was performed before and after rAIM loading.\nThe relative size of lipid droplet (Relative droplet size) was determined from an average diameter of 50 lipid droplets. […] The number of cells containing lipid droplets per unit area was measured in 5 different fields and the average was determined."}, "3T3-L1 adipocytes": {"system": "3T3-L1 adipocytes", "assay": "Expression of lipid droplet formation-related genes and PREF-1 by real-time PCR", "format": "cell-based, mouse", "conditions": "rAIM 5 μg/ml", "description": "rAIM was loaded (5 μg/ml) on 3T3-L1 adipocytes, mRNA of lipid droplet formation-related genes (FSP27, Perilipin, and Adipophilin) was measured on day 2, day 4, and day 6 using 7500 Fast Real-Time PCR system (Invitrogen; CA, USA) and by the ΔΔCT method (each n=3).\nSimilarly, mRNA of PREF-1 of preadipocyte marker was also measured. The measurement value was standardized with GAPDH.\nRelative expression level was determined with that on day 0 as 1.0."}, "FAS [2]": {"system": "FAS", "assay": "Co-immunoprecipitation of AIM-HA and FLAG-FAS or FAS domains in HEK 293T cells", "format": "binding", "conditions": "Flag-labeled FAS domains in HEK293T cells stably expressing AIM-HA", "source_text": "In HEK 293T cells, rAIM labeled with HA-tag and FAS labeled with FLAG-tag were co-expressed, and the binding of AIM and FAS was confirmed by co-immunoprecipitation using an anti-Flag antibody or anti-HA antibody.\nThen, the AIM binding region in FAS was examined. FAS contains 8 domains of keto acyl synthase (KS), malonyl/acetyl transferase (MAT), dehydrase (DH), central core (CC), enoylreductase (ER), keto reductase (KR), acylcarrier protein (ACP) and thioesterase (TE).\nThe N-terminal of each domain of FAS was labeled with Flag sequence, and expressed in HEK293T cells where AIM-HA is stably expressed. The binding of AIM-HA and each domain of FAS was confirmed by co-immunoprecipitation using an anti-Flag antibody or anti-HA antibody.\nThe sequence encoding full-length FAS cDNA (nucleotide: +1-7515) labeled with FLAG-tag was constructed using a part of the cDNA clone provided by Dr. Ohara (Kazusa DNA Research Institute) and some fragments cloned by RT-PCR and pFLAG-CMV2 vector (Sigma).\nA cDNA fragment encoding KS, MAT, DH, CC, ER, KR, ACP or TE was prepared by subcloning to pFLAG-CMV2 vector by using full-length FAS cDNA as a template."}, "FAS [3]": {"biological_target": "FAS (Mus musculus, UniProt P19096)", "sequence (P19096 whole entry)": "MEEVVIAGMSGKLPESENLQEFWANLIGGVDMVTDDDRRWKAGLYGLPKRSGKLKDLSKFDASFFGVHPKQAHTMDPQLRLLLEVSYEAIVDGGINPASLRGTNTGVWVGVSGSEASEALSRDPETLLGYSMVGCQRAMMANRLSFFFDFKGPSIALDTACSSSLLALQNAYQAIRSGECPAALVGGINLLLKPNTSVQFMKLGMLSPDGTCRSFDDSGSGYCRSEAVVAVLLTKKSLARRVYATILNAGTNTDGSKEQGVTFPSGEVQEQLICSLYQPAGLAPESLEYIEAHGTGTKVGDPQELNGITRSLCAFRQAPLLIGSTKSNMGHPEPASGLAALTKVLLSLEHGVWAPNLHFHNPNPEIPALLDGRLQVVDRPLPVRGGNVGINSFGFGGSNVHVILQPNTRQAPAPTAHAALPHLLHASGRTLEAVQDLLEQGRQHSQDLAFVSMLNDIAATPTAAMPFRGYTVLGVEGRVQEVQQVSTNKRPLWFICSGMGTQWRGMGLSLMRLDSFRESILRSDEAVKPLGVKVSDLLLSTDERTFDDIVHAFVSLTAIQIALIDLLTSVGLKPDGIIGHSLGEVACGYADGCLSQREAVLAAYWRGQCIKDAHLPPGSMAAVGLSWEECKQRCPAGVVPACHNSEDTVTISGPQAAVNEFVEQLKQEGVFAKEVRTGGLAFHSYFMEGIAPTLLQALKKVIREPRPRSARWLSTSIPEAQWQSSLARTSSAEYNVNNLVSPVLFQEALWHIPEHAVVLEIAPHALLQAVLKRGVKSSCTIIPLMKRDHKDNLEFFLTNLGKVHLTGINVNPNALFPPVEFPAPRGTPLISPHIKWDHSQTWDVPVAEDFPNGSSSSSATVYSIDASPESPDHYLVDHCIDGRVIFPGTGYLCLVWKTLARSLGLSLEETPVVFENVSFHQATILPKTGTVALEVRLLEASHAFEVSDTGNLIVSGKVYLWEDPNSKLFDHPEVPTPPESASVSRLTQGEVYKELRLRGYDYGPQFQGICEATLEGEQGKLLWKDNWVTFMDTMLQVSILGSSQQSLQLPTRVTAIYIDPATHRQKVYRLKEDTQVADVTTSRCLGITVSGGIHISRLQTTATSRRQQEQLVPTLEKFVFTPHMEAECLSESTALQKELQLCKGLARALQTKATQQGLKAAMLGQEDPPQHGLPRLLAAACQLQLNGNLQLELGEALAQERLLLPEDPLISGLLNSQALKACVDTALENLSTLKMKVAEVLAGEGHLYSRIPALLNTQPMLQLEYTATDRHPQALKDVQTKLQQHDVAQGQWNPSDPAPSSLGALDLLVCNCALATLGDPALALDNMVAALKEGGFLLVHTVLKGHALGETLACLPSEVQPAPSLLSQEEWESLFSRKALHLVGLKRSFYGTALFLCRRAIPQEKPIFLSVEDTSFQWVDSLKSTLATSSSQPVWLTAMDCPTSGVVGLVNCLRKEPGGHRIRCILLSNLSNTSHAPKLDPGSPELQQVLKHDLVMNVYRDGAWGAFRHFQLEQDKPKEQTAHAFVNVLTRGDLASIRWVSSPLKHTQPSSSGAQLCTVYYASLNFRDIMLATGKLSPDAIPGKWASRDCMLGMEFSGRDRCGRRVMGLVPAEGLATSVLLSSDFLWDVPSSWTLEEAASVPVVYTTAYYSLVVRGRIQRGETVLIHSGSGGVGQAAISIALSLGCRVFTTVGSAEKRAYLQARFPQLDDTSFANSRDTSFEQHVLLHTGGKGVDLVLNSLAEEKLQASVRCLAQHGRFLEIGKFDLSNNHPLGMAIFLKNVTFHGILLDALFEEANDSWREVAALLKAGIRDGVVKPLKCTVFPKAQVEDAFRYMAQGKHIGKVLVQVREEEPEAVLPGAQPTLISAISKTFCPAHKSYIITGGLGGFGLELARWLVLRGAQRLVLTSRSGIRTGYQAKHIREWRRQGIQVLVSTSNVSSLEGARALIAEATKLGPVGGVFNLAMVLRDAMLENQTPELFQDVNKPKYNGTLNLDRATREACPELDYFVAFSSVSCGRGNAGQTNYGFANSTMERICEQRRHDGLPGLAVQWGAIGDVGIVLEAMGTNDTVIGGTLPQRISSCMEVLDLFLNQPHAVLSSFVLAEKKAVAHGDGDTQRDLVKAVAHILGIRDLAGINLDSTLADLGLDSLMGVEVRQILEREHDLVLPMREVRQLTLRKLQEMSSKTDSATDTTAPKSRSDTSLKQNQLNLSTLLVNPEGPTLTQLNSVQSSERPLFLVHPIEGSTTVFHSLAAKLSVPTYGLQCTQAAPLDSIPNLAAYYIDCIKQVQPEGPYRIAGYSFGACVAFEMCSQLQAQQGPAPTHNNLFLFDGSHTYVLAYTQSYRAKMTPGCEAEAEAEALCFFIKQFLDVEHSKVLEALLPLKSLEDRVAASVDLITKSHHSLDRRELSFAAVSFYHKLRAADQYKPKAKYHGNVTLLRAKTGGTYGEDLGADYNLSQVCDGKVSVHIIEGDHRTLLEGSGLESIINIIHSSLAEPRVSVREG", "assay": "FAS enzyme activity of treated 3T3-L1 adipocytes", "format": "cell-based", "set-up": "endogenous in cells; host or cells: 3T3-L1 adipocytes (treated cells, then lysed)", "conditions": "3T3-L1 adipocytes, rAIM 5 μg/ml, 6 days", "description": "The influence of AIM on FAS activity of adipocyte or adipose tissue was examined. FAS activity was measured by the method of Kelley (Kelley et al., Biochem. J., 1986, 235:87-90) with slight modification. 3T3-L1 adipocytes, or lysates of adipose tissue of obese mice was mixed with acetyl-CoA and NADPH (0.2 M […] phosphate buffer [pH 7.0] containing 0.4 mM EDTA), and the mixture was placed in a spectrophotometer cuvette and maintained at 30° C. 20 μl of malonyl-CoA solution (0.2 mM) was added to start an enzyme reaction and decrease of OD was measured at a chart speed 2 cm/min. Based on the results, the enzyme activity of FAS was evaluated using the molar extinction coefficient of […] NADPH as 6220.\nFirst, the FAS activity of 3T3-L1 cells treated for 6 days in the presence or absence of rAIM (5 μg/ml), and in the presence of C75 (25 μM) was measured. Moreover, the FAS activity of adipose tissues of AIM^+/+ mice and AIM^−/− mice and the FAS activity of adipose tissue of AIM^−/− mice administered with rAIM or BSA 3 hr before by intraadipose topical injection are shown in FIGS. 28 and 29, respectively.\nAll mice were fed with HFD for 20 weeks. The samples were dissolved (lysed) and the FAS activity was measured. The data was converted to that based on FAS protein, according to the results of WB performed using the same sample."}}}
{"molecule": "rAIM: recombinant AIM protein (rAIM) of mouse, HA-tagged, prepared in HEK293T cells (protein, left off: small tags and cut ends, recombinant AIM protein (rAIM) of mouse, HA-tagged, prepared in HEK293T cells) ESPTKVQLVGGAHRCEGRVEVEHNGQWGTVCDDGWDRRDVAVVCRELNCGAVIQTPRGASYQPPASEQRVLIQGVDCNGTEDTLAQCELNYYVFDCSHEEDAGAQCENPDSDLLFIPEDVRLVDGPGHCQGRVEVLHQSQWSTVCKAGWNLQVSKVVCRQLGCGRALLTYGSCNKNTQGKGPIWMGKMSCSGQEANLRSCLLSRLENNCTHGEDTWMECEDPFELKLVGGDTPCSGRLEVLHKGSWGSVCDDNWGEKEDQVVCKQLGCGKSLHPSPKTRKIYGPGAGRIWLDDVNCSGKEQSLEFCRHRLWGYHDCTHKEDVEVICTDFDV", "values": [{"measurement": "infiltration of macrophages into adipose tissue (F4/80 staining of visceral fat section)", "setting": "AIM knockout mice", "value": "infiltration of macrophages into adipose tissue"}, {"measurement": "expression of adipocyte markers (C/EBPα, PPARγ1, PPARγ2, CD36, Glut4) mRNA", "setting": "3T3-L1 cells; schedule B", "value": "suppressed"}, {"measurement": "expression of adipocyte markers (C/EBPα, PPARγ1, PPARγ2, CD36, Glut4) mRNA", "setting": "3T3-L1 cells; schedule D as printed, AIM administered simultaneously with differentiation induction stimulation", "value": "suppressed"}, {"measurement": "expression of adipocyte markers (C/EBPα, PPARγ1, PPARγ2, CD36, Glut4) mRNA", "setting": "3T3-L1 cells; schedule D, AIM only before differentiation induction", "value": "expressed"}, {"measurement": "number of lipid droplet-containing cells per unit area", "setting": "[1]; 6 days", "value": "significantly decreased"}, {"measurement": "relative size of lipid droplets", "setting": "[1]; 6 days", "value": "significantly decreased"}, {"measurement": "lipid droplet in the cell (oil-red-O)", "setting": "[1]; 6 days of culture", "value": "markedly decreased"}, {"measurement": "expression of lipid droplet formation-related genes (FSP27, Perilipin, Adipophilin)", "setting": "3T3-L1 adipocytes; day 2, relative to day 0", "value": "decreased markedly"}, {"measurement": "expression of preadipocyte markers (PREF-1)", "setting": "3T3-L1 adipocytes; during rAIM treatment", "value": "did not increase"}, {"measurement": "FAS domains bound to AIM", "setting": "FAS [2]", "value": "ER, DH, TE and CC"}, {"measurement": "FAS activity", "setting": "FAS [3]", "value": "markedly suppressed"}]}
